From article PMC8891371

Assays:
[1] = biological target: axolotl Melanocortin-3 receptor, N-terminally 3×HA tagged (Ambystoma mexicanum (Mexican axolotl))
[2] = biological target: axolotl Melanocortin-4 receptor, N-terminally 3×HA tagged (Ambystoma mexicanum (Mexican axolotl))

| cAMP luminescent assay (pCRE-Luc, Dual-Glo) in HEK293T, logEC50; MC3R:MRAP2 plasmid ratio 1:0 [1] [log M] | cAMP luminescent assay (pCRE-Luc, Dual-Glo) in HEK293T, logEC50; MC3R:MRAP2 plasmid ratio 1:1 [1] [log M] | cAMP luminescent assay (pCRE-Luc, Dual-Glo) in HEK293T, logEC50; MC3R:MRAP2 plasmid ratio 1:3 [1] [log M] | cAMP luminescent assay (pCRE-Luc, Dual-Glo) in HEK293T, logEC50; MC3R:MRAP2 plasmid ratio 1:6 [1] [log M] | cAMP luminescent assay (pCRE-Luc, Dual-Glo) in HEK293T, logEC50; MC4R:MRAP2 plasmid ratio 1:0 [2] [log M] | cAMP luminescent assay (pCRE-Luc, Dual-Glo) in HEK293T, logEC50; MC4R:MRAP2 plasmid ratio 1:1 [2] [log M] | cAMP luminescent assay (pCRE-Luc, Dual-Glo) in HEK293T, logEC50; MC4R:MRAP2 plasmid ratio 1:3 [2] [log M] | cAMP luminescent assay (pCRE-Luc, Dual-Glo) in HEK293T, logEC50; MC4R:MRAP2 plasmid ratio 1:6 [2] [log M] | Substance |
| --- | --- | --- | --- | --- | --- | --- | --- | --- |
| -9.95 | -9.29 | -9.04 | -8.98 | -9.84 | -10 | -9.37 | -9.06 | Human α-melanocyte stimulating hormone (peptide) |
| -9.51 | -9.47 | -9.4 | -9.55 | -9.62 | -10.1 | -10.1 | -10.3 | human adrenocorticotropin ACTH (1–24) (peptide) |
